These results are taken from patent publication US20120141451A1.

In assay [1] the target is Ig2 module of mouse FGFR1 (IIIc isoform) (mouse) (UniProt P16092). Briefly: SPR (BIAcore2000), soluble NCAM F3 modules 1-2 on immobilized FGFR Ig2.
Assay [2] addresses rat NCAM F3 modules 1-2 (rat) (UniProt P13596). Briefly: SPR (BIAcore2000), soluble FGFR Ig2 on immobilized NCAM F3 modules 1-2.

Ig2 module of mouse FGFR1 (IIIc isoform) (mouse), sequence (P16092 other isoform, or with tags, fused parts or gaps limits assumed, form in doubt): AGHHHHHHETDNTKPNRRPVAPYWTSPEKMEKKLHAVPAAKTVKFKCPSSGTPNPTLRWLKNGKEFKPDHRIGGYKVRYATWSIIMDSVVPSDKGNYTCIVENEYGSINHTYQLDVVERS
rat NCAM F3 modules 1-2 (rat), sequence (P13596 other isoform, or with tags, fused parts or gaps limits assumed, form in doubt): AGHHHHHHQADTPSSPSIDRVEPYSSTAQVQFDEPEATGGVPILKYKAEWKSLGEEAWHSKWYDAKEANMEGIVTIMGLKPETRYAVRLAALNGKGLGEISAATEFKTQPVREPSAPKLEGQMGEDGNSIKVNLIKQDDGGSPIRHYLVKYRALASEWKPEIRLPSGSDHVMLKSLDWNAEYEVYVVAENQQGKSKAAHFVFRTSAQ

With “rat NCAM F3 modules 1-2 (from UniProt P13596 507-705) (receptor)”, the Kd (commonly the equilibrium constant for the complex coming apart) in assay [1] came out at 12 µM.

Turning to “Ig2 module of mouse FGFR1 (IIIc isoform) (from UniProt P16092 140-251) (receptor)”, the Kd in assay [2] is 35 µM.
